Experimental data as given in the supplement of paper PMC9170038.

Tested on: K4 kissing-loop RNA reporter
Test: apparent KD of K4 kissing-loop reporter; higher = weaker reporter binding
Details: Eterna round: R107
Procedure: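 RNA-MaP round R107: designed RNA switches with theophylline, tryptophan, arginine or FMN aptamers are transcribed on-chip within common flanks. They are titrated with a labelled K4 kissing-loop RNA reporter in RNA-MaP buffer (100 mM Tris pH 7.5, 80 mM KCl, 4 mM MgCl2), without ligand or with the indicated ligand. Median apparent KD per design.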

[1] = input ligand: theophylline 20 uM
[2] = input ligand: tryptophan 2.4 mM
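Also: bound reporter read as fluorescence of individual clusters on recovered sequencing chips by microscopy, with normalized cluster intensities fitted with a binding model.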

Sequence | apparent KD of K4 kissing-loop reporter (input ligand: FMN 200 uM) | apparent KD of K4 kissing-loop reporter (input ligand: arginine 13.2 mM) | apparent KD of K4 kissing-loop reporter (input ligand: none) | apparent KD of K4 kissing-loop reporter [1] | apparent KD of K4 kissing-loop reporter [2]
UGAGUUAGACAAAAGUCUAGCUCUGGUGAAGGAGCGUCCGAAAGGACAGGUAGGUCGCACCACCUGAGUGAUGUUCAGAAUCCUU [KL-SSArg-A22] | 670 nM | 506 nM | 789 nM | 762 nM | 468 nM
UGAUACCAGACGGCCGCCACUCCCGUAAGUCAAAGACUUACGAAGAAGGUUUUUUAGUGAUGUUGGAGGACCGGGUCUGGUAUCU [FiskerMod 19 - Jieux - Exclusion - Tryptophan B] | 258 nM | 188 nM | 210 nM | 302 nM | 1100 nM
UGAUACCAGACUGAUACCAGCCACAGAGUCAAAGACUCUGAAAAGGAAACCAGUGAUGUUGGCCCUUGGCAGCAGUCUGGUAUCU [TheoBX 15 #SwitchBubble #StaticStem] | 191 nM | 176 nM | 171 nM | 152 nM | 164 nM
UGAUACCAGACUGAUACCAGCCAGUGAUGUUGGCUAAGCCGAAGAGGUGUCAUAGACACCGGCCCUUGGCAGCAGUCUGGUAUCU [#07 K4 Theophylline B Exclusion] | 120 nM | 110 nM | 120 nM | 108 nM | 117 nM
UGAUAGGACAGAAGGAGCGGAAGUGAUGUUUCCAAAAGGUAAAGGUGUCAAAAGACACCCUUCCAGGUAGGUCGCUGUCCUAUCU [ArgBX 12 #Palindromic #SwitchBubble #StaticStem] | 119 nM | 124 nM | 113 nM | 126 nM | 103 nM
UGAUAGGACAGAAGGAGCGGUAGUGAUGUUACCAAAAGAAUAAGGUGUCAAAAGACACCCUACCAGGUAGGUCGCUGUCCUAUCU | 170 nM | 237 nM | 189 nM | 220 nM | 179 nM
UGAUAGGACAGAAGGAGCGGUAGUGAUGUUGCCAAAAGGGUAAGGUGUCAAAAGACACCCUGCCAGGUAGGUCGCUGUCCUAUCU | 99.7 nM | 93.8 nM | 98.5 nM | 96.6 nM | 81.9 nM
UGAUAGGACAGAAGGAGCGGUAGUGAUGUUGCCAAAAGGUUAAGGUGUCAAAAGACACCCUACCAGGUAGGUCGCUGUCCUAUCU | 188 nM | 207 nM | 193 nM | 193 nM | 179 nM
UGCAUGUGAAACAUGUAGGUGCUAGGUGAAGGAGCGAUCGAAAGAUCAGGUAGGUCGCACCUUCCUGAGUGAUGUUCAGGUAAUA [KL-SSArg-A2] | 60.3 nM | 31.7 nM | 47.7 nM | 55.2 nM | 46 nM
UGCGGUAGUGAUGUUACCUCAUUAUACUAGCGAGGACCGGUACGGCCGCCACUCGACUUCCUCCACGCCUAGGCCUCUACGUUCA [theeternabot_sameState_KL_Trp_A_36] | 136 nM | 122 nM | 137 nM | 127 nM | 98.2 nM
UGGACGAUAUACGAUAAGUAUAUCUGGGAUACCAGUGACGAAAGUCACCCUUGGCAGCUCAACUGCCAGUGAUGUUGGUAGUCCA [#17 K4 Theophylline A Same State] | 192 nM | 153 nM | 135 nM | 182 nM | 126 nM
UGGACUAGUGUGAGUGAUGUUCACUUCGAUACCAGCAGAGCGAUCUGCCCUUGGCAGCGAGUUAACUGCCGAAAGGCAAGGUCCA [Theo B SS t9a] | 457 nM | 478 nM | 477 nM | 457 nM | 382 nM
UGGAUAUAGUGAUGUUAUAUAGAGAGUGAUACCAGUUUAGAGAAGAACCCUUGGCAGCAUAGAGAAGUAUCAUUAGAGAAGAAUG [ExTheophyl.Ap] | 220 nM | 208 nM | 233 nM | 240 nM | 180 nM
UGGCGGCAAGGGUUAUUGGAAAGUAUUCGACGAGGACCGGUACGGCCGCCACUCGAACACCAGUGAUGUUGGUCUGGCUUAAGCC [Exclusion Tryptophan A GF 21] | 276 nM | 245 nM | 285 nM | 275 nM | 279 nM
UGGGAUGGGCGAGGAUAUGGUGAUGUUUGGGUUGUUAGUGAUGUUGGUGAUGCUGGUGGUGUUUGUCCAGAAGGCGCGGUUUUUU [Bdazzled 3] | 154 nM | 64.1 nM | 119 nM | 132 nM | 109 nM
UGGGUGUAGUGAUGUUAUAUAGAGAGUGAUACCAGCGUAGAGAGAUGCCCUUGGCAGCAUAGAAGAGUAUCAUUGGAGGAGGAGG [ExTheophyl.Az] | 689 nM | 743 nM | 883 nM | 730 nM | 514 nM
UGGGUGUAGUGAUGUUAUAUAGAGAGUGAUACCAGUUUAGAGAAGAACCCUUGGCAGCAUAGAAGAGUAUCAUUGGAGGAGGAGG [ExTheophyl.Av] | 361 nM | 413 nM | 336 nM | 268 nM | 289 nM
UGGUAUAGUGAUGUUAUACCACUACCAGAUACCAGUGUAACAUUACGCCCUUGGCAGCUGAUCAGGGAACAUAUGGAGACAUAUG [Theo A Mod astro A#6] | 318 nM | 261 nM | 285 nM | 267 nM | 292 nM
UGUACCGAGUCAGGAUAUCAACGACUGACAAAGUCGGUCGAAUAUCCAGUGAUGUUGGAAAAUAACUGAGAAGGGACUUGGUACU [FmnBS 13 #SwitchBubble #StaticStem] | 194 nM | 629 nM | 1080 nM | 710 nM | 903 nM
UGUACCGAGUCAGGAUAUCAUAAUAAUGCAGUGAUGUUGCAAUAACGACUGACAAAGUCGGUCGAUUGAGAAGGGACUUGGUACU [FmnBS 6 #SwitchBubble #StaticStem] | 127 nM | 118 nM | 129 nM | 110 nM | 126 nM
UGUACCGAGUCAGGAUAUGGCGUCGAAAGACGAAACCAGUGAUGUUGGAAAAUCUGCGAAAGCAGUCCAGAAGGGACUUGGUACU [FmnBS 24 #SwitchBubble #StaticStem #DoubleMagnetSystem] | 193 nM | 236 nM | 302 nM | 227 nM | 226 nM

Sequence | apparent KD of K4 kissing-loop reporter (input ligand: FMN 200 uM) | apparent KD of K4 kissing-loop reporter (input ligand: arginine 13.2 mM) | apparent KD of K4 kissing-loop reporter (input ligand: none) | apparent KD of K4 kissing-loop reporter [1] | apparent KD of K4 kissing-loop reporter [2]
UGUAUGGACUGAAGGAGCGCUAGGUAUGUGAGUGAUGUUCAUAUAAAUGUAUAAAGGGUUUGGCAGGUAGGUCGCAGUCCAUACU [KL-SSArg B6] | 213 nM | 122 nM | 227 nM | 154 nM | 188 nM
UGUAUGUGAUUUGAUACCAGACCAGCUGGUGGUAUAUGAGUGAUGUUCAUGUUGGUUUGGGUCCCUUGGCAGCAAAUCGCAUACU [KL-SSTheoB10] | 271 nM | 183 nM | 217 nM | 213 nM | 212 nM
UGUAUGUGAUUUGAUACCAGACCAGGUGGAGGAAUCUGAGUGAUGUUCAGGUAGGUUCUGGUCCCUUGGCAGCAAAUCGCAUACU [KL-SSTheoB19] | 166 nM | 133 nM | 168 nM | 150 nM | 160 nM
UGUCAUGGAAACAUGAACGUUGAUGUUCGACGAGGACCGGUACGGCCGCCACUCGAGUAAUAGUCAGUGAUGUUGACUAGUCUAA [KL-SSTryp-A form1] | 76.7 nM | 107 nM | 95 nM | 112 nM | 75.7 nM
UGUCAUUGGUCGGCCGCCACUAGAAGGUCAAAGACCAAAGAGUGAUGUUCUUAGACGAAAGUCACUAGGACCGGGACCGAUGACU [TrypBS 7 #SwitchBubble #K4Middle] | 931 nM | 641 nM | 971 nM | 746 nM | 200 nM
UGUCAUUGGUCGGCCGCCACUAGACGGACAUAAAGUCUGUCAUAAAGAGUGAUGUUCUUAAAUAAUAGGACCGGGACCGAUGACU [TrypBS 29 #SwitchBubble #StaticStem] | 440 nM | 382 nM | 872 nM | 611 nM | 218 nM
UGUCAUUGGUCGGCCGCCACUCCAUAAUGAGUGAUGUUCUAAAAGACGGAUCGAAAGAUCUGUCGGAGGACCGGGACCGAUGACU [FiskerMod 5 - Jieux - Same State - Tryptophan B] | 566 nM | 456 nM | 680 nM | 799 nM | 267 nM
UGUCAUUGGUCUGAUACCAGCUGAUCGGAAACGAUCUUGCUGGAGUGAUGUUCCAAGUAAAGCCCUUGGCAGCAGACCGAUGACU [TheoBS 9 #SwitchBubble #StaticStem] | 183 nM | 53.8 nM | 70.6 nM | 107 nM | 144 nM
UGUCAUUGGUCUGAUACCAGCUGAUCGGAAACGAUCUUGCUGGAGUGAUGUUCCAGGAAAAGCCCUUGGCAGCAGACCGAUGACU [TheoBS 10 #SwitchBubble #StaticStem] | 1320 nM | 445 nM | 1210 nM | 1100 nM | 1220 nM
UGUCAUUGGUCUGAUACCAGUUGAUAAACUGGAGUGAUGUUCCAAGACGAGAAACUCGACAACCCUUGGCAGCAGACCGAUGACU [TheoBS 16 #SwitchBubble 13 #StaticStem] | 440 nM | 295 nM | 374 nM | 772 nM | 430 nM
UGUCGAGUGAUGUUCGAUGUGGUGCAUGCAGAGGAUAUAGGGUGGGCUAGAAGGCUGAAAAGUGCUUCGAGUGAUGUUCGAAGAU [Exclusion FMN A GF9] | 129 nM | 112 nM | 123 nM | 100 nM | 114 nM
UGUCGUUCUAGUGAUGUUAGGACAGUUAUGAAGGAUAUACACACUCGUAGAAGGUCAGCUGCGGAAUGGCGAUUACGGUGAUUCG [theeternabot_sameState_KL_FMN_A_39] | 157 nM | 107 nM | 128 nM | 132 nM | 136 nM
UGUGCUGUGUACUGUAAUGUUAUGCGGGAUACCAGAGUCUUUUUAUUCCCUUGGCAGCUUGAGUGAUGUUUGAUGCUGUUCUUGU [kiokmullin] | 362 nM | 301 nM | 370 nM | 331 nM | 314 nM
UGUGUUGUUUUGAUGUUUGUUGUAAGGUGGCAGGAUAUCGUAGAGGCGAGAAGGGCUUUUUUGCGUUAUGAGUGAUGUUUGUAGG [exeerzmullin] | 592 nM | 379 nM | 614 nM | 471 nM | 386 nM
UGUGUUUACCUGACCCAGUGAUGUUGGGAAGGAGCGUGCGAAAGCACAGGUAGGUCGCUCAACCUAAAGUCAGGUGAGCACUAAA [#SwitchBubble 9 #K4Early] | 407 nM | 277 nM | 447 nM | 470 nM | 328 nM
UGUGUUUACCUGACUCAGUGAUGUUGAGAAGGAGCGUGAGAAAGCACAGGUAGGUCGCUCAACCUAAAUUCAGGUGAGCACUAAA | 241 nM | 274 nM | 238 nM | 302 nM | 204 nM
UGUUAUGGGUGAGGAUAUGCUGACGAUGCGGGUGCGAGUGAUGUUGGUGUGGCUGGUGUCGUUUGUGCAGAAGGCACGCUCGUGG [BDazzled] | 879 nM | 522 nM | 934 nM | 846 nM | 811 nM
UUAACCAACAGCGAUACCAGCGUGGAGUGAUGUUCCGAGGAUCGGAGUGAUGUUCCGAAGCGCCCUUGGCAGCGCAGAAGCGCCA [Exclusion Theophylline B GF9] | 183 nM | 115 nM | 130 nM | 139 nM | 134 nM
UUAGAGAUCUCAGGAUAUCAGUGAUGUUGGUGUGAAGAUCUGAGAUAGAAUUCUAUCUCAGAUCAAUGAGAAGGGAGAUCUCAUU [AK3.1 Exc FMN B] | 385 nM | 162 nM | 209 nM | 181 nM | 168 nM
UUAGAGAUCUCAGGAUAUGAGUGAUGUUGGUAUCAAGAUCUGAGAUAGAAUUCUAUCUCAGAUCAAUCAGAAGGGAGAUCUCAUU [AK2.1 Exc FMN B] | 376 nM | 424 nM | 534 nM | 583 nM | 550 nM
UUAGUACAUAGAGAUACCAGCCAUCGAAGUGAUGUUUCGAGAAAUAAUGAUGUUGGUAUAGGCCCUUGGCAGCUCUAUGUACAUU [AK1 Exc Theophylline B] | 103 nM | 95.4 nM | 104 nM | 94.7 nM | 97.4 nM
